The data set deals with the molecule itself. Nature of the data set: SDS-PAGE and anti-Adh1p western blot of SDS-resistant oligomers; crude extracts of T73 cells (dehydrated, grown 5 h in YPGF, or fresh with or without 5 mM glyoxal), 10% SDS-polyacrylamide gel under denaturing conditions, polyclonal anti-Adh1p. Background: In western blotting, separated proteins are transferred to a membrane and probed.

“And” between values parts separate entries of the source, which are not always exact repeats. Equal entries are not always repeated.

B1: alcohol dehydrogenase I (Adh1p) (enzyme, S. cerevisiae (endogenous in strain T73), UniProt P00330 1-348, looked up)
chain: MSIPETQKGVIFYESHGKLEYKDIPVPKPKANELLINVKYSGVCHTDLHAWHGDWPLPVKLPLVGGHEGAGVVVGMGENVKGWKIGDYAGIKWLNGSCMACEYCELGNESNCPHADLSGYTHDGSFQQYATADAVQAAHIPQGTDLAQVAPILCAGITVYKALKSANLMAGHWVAISGAAGGLGSLAVQYAKAMGYRVLGIDGGEGKEELFRSIGGEVFIDFTKEKDIVGAVLKATDGGAHGVINVSVSEAAIEASTRYVRANGTTVLVGMPAGAKCCSDVFNQVVKSISIVGSYVGNRADTREALDFFARGLVKSPIKVVGLSTLPEIYEKMEKGQIVGRYVVDTSK
modifications: oxidative carbonylation of the dimer, tetramer and higher bands (residues not stated)
notes: Alcohol dehydrogenase I (Adh1p) of Saccharomyces cerevisiae, subunit of approximately 37 kDa; Endogenous protein of an industrial wine strain; source: endogenous, S. cerevisiae wine strain T73 (and TTRX2), crude cell extracts
As for B1, the “stoichiometry N” value was 2 and 4.

As usually defined, the stoichiometry N is the number of molecules, sites or subunits per partner or assembly.

The values above are taken from PMC3280929, “Engineered Trx2p industrial yeast strain protects glycolysis and fermentation proteins from oxidative carbonylation during biomass propagation” (Microbial Cell Factories, 2012).
